According to paper PMC9482650, “Quantitative fragmentomics allow affinity mapping of interactomes” (Nature Communications, 2022):

Key:
Assay in all cases: holdup assay
Design in all cases: key: below the threshold = too weak to quantify, mostly under pKd 3.1 to 4
FRMPD1, Q5SYB0 = molecular target: T1, FRMPD1, Q5SYB0
T1 sequence (Q5SYB0 52-145, limits assumed, looked up): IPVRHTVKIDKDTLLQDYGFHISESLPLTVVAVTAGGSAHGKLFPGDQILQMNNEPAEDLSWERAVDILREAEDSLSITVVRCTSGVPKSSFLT

TJP2_1, Q9UDY2 = molecular target: TJP2_1, Q9UDY2
LDB3, O75112 = molecular target: LDB3, O75112
PDLIM1, O00151 = molecular target: PDLIM1, O00151
GRIP1_4, Q9Y3R0 = molecular target: T2, GRIP1_4, Q9Y3R0
T2 sequence (Q9Y3R0 467-571, limits assumed, looked up): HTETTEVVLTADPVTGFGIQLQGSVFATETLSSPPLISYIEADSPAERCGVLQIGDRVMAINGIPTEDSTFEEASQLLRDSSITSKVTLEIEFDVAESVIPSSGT

SHANK1, Q9Y566 = molecular target: T3, SHANK1, Q9Y566
T3 sequence (Q9Y566 658-767, limits assumed, looked up): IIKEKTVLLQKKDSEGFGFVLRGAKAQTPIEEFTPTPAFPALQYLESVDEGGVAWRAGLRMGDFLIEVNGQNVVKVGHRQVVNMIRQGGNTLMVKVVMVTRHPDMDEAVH

DVL3, Q92997 = molecular target: T4, DVL3, Q92997
T4 sequence (Q92997 244-331, limits assumed, looked up): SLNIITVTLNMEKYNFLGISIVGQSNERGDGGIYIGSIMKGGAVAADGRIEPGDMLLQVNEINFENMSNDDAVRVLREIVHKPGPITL

AHNAK1, Q09666 = molecular target: AHNAK1, Q09666
APBA1_2, Q02410 = molecular target: T5, APBA1_2, Q02410
T5 sequence (Q02410 742-832, limits assumed, looked up): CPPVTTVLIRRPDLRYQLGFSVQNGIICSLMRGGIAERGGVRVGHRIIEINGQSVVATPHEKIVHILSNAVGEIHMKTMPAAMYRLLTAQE

NHERF4_4, Q86UT5 = molecular target: NHERF4_4, Q86UT5
GORASP2, Q9H8Y8 = molecular target: GORASP2, Q9H8Y8
CARD11, Q9BXL7 = molecular target: T6, CARD11, Q9BXL7
T6 sequence (Q9BXL7 662-765, limits assumed, looked up): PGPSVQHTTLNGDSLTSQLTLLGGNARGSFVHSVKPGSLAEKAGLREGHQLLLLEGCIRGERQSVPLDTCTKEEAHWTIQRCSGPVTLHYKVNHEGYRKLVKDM

HTRA4, P83105 = molecular target: T7, HTRA4, P83105
T7 sequence (P83105 378-476, limits assumed, looked up): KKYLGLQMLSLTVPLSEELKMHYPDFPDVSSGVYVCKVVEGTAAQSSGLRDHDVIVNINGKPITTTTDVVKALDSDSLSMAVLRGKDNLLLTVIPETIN

MPP2, Q14168 = molecular target: T8, MPP2, Q14168
T8 sequence (Q14168 180-250, limits assumed, looked up): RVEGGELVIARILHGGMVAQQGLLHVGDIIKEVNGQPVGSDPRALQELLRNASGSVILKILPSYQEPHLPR

PARD3B_1, Q8TEW8 = molecular target: T9, PARD3B_1, Q8TEW8
T9 sequence (Q8TEW8 196-299, limits assumed, looked up): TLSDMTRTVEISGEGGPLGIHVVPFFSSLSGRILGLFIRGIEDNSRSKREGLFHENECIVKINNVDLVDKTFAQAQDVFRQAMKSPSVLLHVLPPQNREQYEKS

LNX1_2, Q8TBB1 = molecular target: LNX1_2, Q8TBB1
DLG1_3, Q12959 = molecular target: DLG1_3, Q12959
GRIP2_4, Q9C0E4 = molecular target: GRIP2_4, Q9C0E4
NHERF3_4, Q5T2W1 = molecular target: T10, NHERF3_4, Q5T2W1
T10 sequence (Q5T2W1 373-468, limits assumed, looked up): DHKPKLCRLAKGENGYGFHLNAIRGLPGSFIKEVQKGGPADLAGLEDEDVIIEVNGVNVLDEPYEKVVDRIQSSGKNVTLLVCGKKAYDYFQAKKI

SCRIB_3, Q14160 = molecular target: SCRIB_3, Q14160
GOPC, Q9HD26 = molecular target: GOPC, Q9HD26
PDZD7_3, Q9H5P4 = molecular target: T11, PDZD7_3, Q9H5P4
T11 sequence (Q9H5P4 857-944, limits assumed, looked up): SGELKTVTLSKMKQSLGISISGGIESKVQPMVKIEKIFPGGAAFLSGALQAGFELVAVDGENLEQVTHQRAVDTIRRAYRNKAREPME

NHERF3_3, Q5T2W1 = molecular target: T12, NHERF3_3, Q5T2W1
T12 sequence (Q5T2W1 238-333, limits assumed, looked up): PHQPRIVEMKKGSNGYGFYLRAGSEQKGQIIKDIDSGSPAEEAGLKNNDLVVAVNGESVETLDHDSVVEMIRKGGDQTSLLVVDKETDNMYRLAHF

LIN7B, Q9HAP6 = molecular target: T13, LIN7B, Q9HAP6
T13 sequence (Q9HAP6 88-185, limits assumed, looked up): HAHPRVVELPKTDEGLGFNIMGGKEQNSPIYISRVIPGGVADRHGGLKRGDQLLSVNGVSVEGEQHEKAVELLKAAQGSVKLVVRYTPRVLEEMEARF

[1] = plain residues with an end cap or a label only (N-terminal biotin on a linker: ahx)
[2] = plain residues with an end cap or a label only (N-terminal biotin on a linker: ttds)
[3] = plain residues with an end cap or a label only (N-terminal biotin on a linker: ado-ado, ttds)
[4] = plain residues with an end cap or a label only (N-terminal biotin on a linker: ado-ado)

Sequence of PDLIM1, O00151 (O00151 1-87): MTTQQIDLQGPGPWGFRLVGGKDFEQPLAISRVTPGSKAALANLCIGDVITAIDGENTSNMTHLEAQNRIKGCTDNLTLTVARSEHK
Sequence of LDB3, O75112 (O75112 1-94): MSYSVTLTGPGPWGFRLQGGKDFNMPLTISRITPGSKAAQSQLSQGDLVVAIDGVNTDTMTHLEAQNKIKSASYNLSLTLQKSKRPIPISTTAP
Sequence of LNX1_2, Q8TBB1 (Q8TBB1 371-470): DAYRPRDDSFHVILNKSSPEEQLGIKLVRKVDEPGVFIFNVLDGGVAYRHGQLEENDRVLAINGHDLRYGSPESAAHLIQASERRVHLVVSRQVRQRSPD
Sequence of NHERF4_4, Q86UT5 (Q86UT5 464-550): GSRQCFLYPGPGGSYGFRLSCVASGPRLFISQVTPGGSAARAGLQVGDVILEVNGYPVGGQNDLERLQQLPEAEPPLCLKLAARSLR
Sequence of AHNAK1, Q09666 (Q09666 4-100): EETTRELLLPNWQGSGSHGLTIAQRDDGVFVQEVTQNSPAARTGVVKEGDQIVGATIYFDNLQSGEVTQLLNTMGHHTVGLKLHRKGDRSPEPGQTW
Sequence of DLG1_3, Q12959 (Q12959 457-571): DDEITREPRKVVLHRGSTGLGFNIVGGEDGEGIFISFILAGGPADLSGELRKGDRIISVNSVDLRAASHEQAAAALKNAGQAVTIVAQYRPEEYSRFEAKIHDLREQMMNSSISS
Sequence of SCRIB_3, Q14160 (Q14160 999-1103): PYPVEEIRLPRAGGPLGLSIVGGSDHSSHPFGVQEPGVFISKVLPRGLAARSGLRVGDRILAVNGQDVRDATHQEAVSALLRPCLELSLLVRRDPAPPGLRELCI
Sequence of TJP2_1, Q9UDY2 (Q9UDY2 24-128): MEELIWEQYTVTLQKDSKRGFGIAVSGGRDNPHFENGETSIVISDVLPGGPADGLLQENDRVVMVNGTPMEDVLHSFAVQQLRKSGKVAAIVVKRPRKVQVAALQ
Sequence of GRIP2_4, Q9C0E4 (Q9C0E4 446-548): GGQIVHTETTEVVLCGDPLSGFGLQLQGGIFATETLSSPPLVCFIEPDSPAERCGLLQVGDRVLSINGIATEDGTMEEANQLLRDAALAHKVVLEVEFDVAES

SKKNELFSNL [NHERF1, O14745]
pKd (FRMPD1, Q5SYB0; [1]): below the threshold
pKd (TJP2_1, Q9UDY2; [1]): below the threshold
pKd (LDB3, O75112; [1]): below the threshold
pKd (PDLIM1, O00151; [1]): below the threshold
pKd (GRIP1_4, Q9Y3R0; [1]): below the threshold
pKd (SHANK1, Q9Y566; [1]): below the threshold
pKd (DVL3, Q92997; [1]): below the threshold
pKd (AHNAK1, Q09666; [1]): below the threshold
pKd (APBA1_2, Q02410; [1]): 3.48
pKd (NHERF4_4, Q86UT5; [1]): below the threshold
pKd (GORASP2, Q9H8Y8; [1]): below the threshold
pKd (CARD11, Q9BXL7; [1]): below the threshold
pKd (HTRA4, P83105; [1]): below the threshold
pKd (MPP2, Q14168; [1]): below the threshold
pKd (PARD3B_1, Q8TEW8; [1]): below the threshold
pKd (LNX1_2, Q8TBB1; [1]): below the threshold
pKd (DLG1_3, Q12959; [1]): below the threshold
pKd (GRIP2_4, Q9C0E4; [1]): below the threshold
pKd (NHERF3_4, Q5T2W1; [1]): below the threshold
pKd (SCRIB_3, Q14160; [1]): below the threshold
pKd (GOPC, Q9HD26; [1]): below the threshold
pKd (PDZD7_3, Q9H5P4; [1]): below the threshold
pKd (NHERF3_3, Q5T2W1; [1]): below the threshold
pKd (LIN7B, Q9HAP6; [1]): below the threshold

PPRQRSETQV [HPV82-E6, Q9IR59]
pKd (FRMPD1, Q5SYB0; [2]): below the threshold
pKd (TJP2_1, Q9UDY2; [2]): 3.44
pKd (LDB3, O75112; [2]): below the threshold
pKd (PDLIM1, O00151; [2]): below the threshold
pKd (GRIP1_4, Q9Y3R0; [2]): below the threshold
pKd (SHANK1, Q9Y566; [2]): below the threshold
pKd (DVL3, Q92997; [2]): below the threshold
pKd (AHNAK1, Q09666; [2]): below the threshold
pKd (APBA1_2, Q02410; [2]): below the threshold
pKd (NHERF4_4, Q86UT5; [2]): below the threshold
pKd (GORASP2, Q9H8Y8; [2]): 4.12
pKd (CARD11, Q9BXL7; [2]): below the threshold
pKd (HTRA4, P83105; [2]): below the threshold
pKd (MPP2, Q14168; [2]): below the threshold
pKd (PARD3B_1, Q8TEW8; [2]): below the threshold
pKd (LNX1_2, Q8TBB1; [2]): below the threshold
pKd (DLG1_3, Q12959; [2]): 3.99
pKd (GRIP2_4, Q9C0E4; [2]): below the threshold
pKd (NHERF3_4, Q5T2W1; [2]): below the threshold
pKd (SCRIB_3, Q14160; [2]): 4.05
pKd (GOPC, Q9HD26; [2]): 3.63
pKd (PDZD7_3, Q9H5P4; [2]): 3.84
pKd (NHERF3_3, Q5T2W1; [2]): below the threshold
pKd (LIN7B, Q9HAP6; [2]): below the threshold

SNAKAVETDV [KCNA4, P22459]
pKd (FRMPD1, Q5SYB0; [3]): below the threshold
pKd (TJP2_1, Q9UDY2; [3]): below the threshold
pKd (LDB3, O75112; [3]): below the threshold
pKd (PDLIM1, O00151; [3]): 3.77
pKd (GRIP1_4, Q9Y3R0; [3]): below the threshold
pKd (SHANK1, Q9Y566; [3]): below the threshold
pKd (DVL3, Q92997; [3]): below the threshold
pKd (AHNAK1, Q09666; [3]): below the threshold
pKd (APBA1_2, Q02410; [3]): 3.5
pKd (NHERF4_4, Q86UT5; [3]): below the threshold
pKd (GORASP2, Q9H8Y8; [3]): below the threshold
pKd (CARD11, Q9BXL7; [3]): 3.55
pKd (HTRA4, P83105; [3]): below the threshold
pKd (MPP2, Q14168; [3]): below the threshold
pKd (PARD3B_1, Q8TEW8; [3]): below the threshold
pKd (LNX1_2, Q8TBB1; [3]): below the threshold
pKd (DLG1_3, Q12959; [3]): below the threshold
pKd (GRIP2_4, Q9C0E4; [3]): below the threshold
pKd (NHERF3_4, Q5T2W1; [3]): below the threshold
pKd (SCRIB_3, Q14160; [3]): 4.8
pKd (GOPC, Q9HD26; [3]): below the threshold
pKd (PDZD7_3, Q9H5P4; [3]): below the threshold
pKd (NHERF3_3, Q5T2W1; [3]): below the threshold
pKd (LIN7B, Q9HAP6; [3]): below the threshold

ELKAEDEVQI [DCHS2, Q6V1P9]
pKd (FRMPD1, Q5SYB0; [4]): below the threshold
pKd (TJP2_1, Q9UDY2; [4]): below the threshold
pKd (LDB3, O75112; [4]): below the threshold
pKd (PDLIM1, O00151; [4]): below the threshold
pKd (GRIP1_4, Q9Y3R0; [4]): below the threshold
pKd (SHANK1, Q9Y566; [4]): below the threshold
pKd (DVL3, Q92997; [4]): below the threshold
pKd (AHNAK1, Q09666; [4]): below the threshold
pKd (APBA1_2, Q02410; [4]): below the threshold
pKd (NHERF4_4, Q86UT5; [4]): below the threshold
pKd (GORASP2, Q9H8Y8; [4]): below the threshold
pKd (CARD11, Q9BXL7; [4]): below the threshold
pKd (HTRA4, P83105; [4]): below the threshold
pKd (MPP2, Q14168; [4]): below the threshold
pKd (PARD3B_1, Q8TEW8; [4]): 3.89
pKd (LNX1_2, Q8TBB1; [4]): below the threshold
pKd (DLG1_3, Q12959; [4]): below the threshold
pKd (GRIP2_4, Q9C0E4; [4]): below the threshold
pKd (NHERF3_4, Q5T2W1; [4]): below the threshold
pKd (SCRIB_3, Q14160; [4]): below the threshold
pKd (GOPC, Q9HD26; [4]): below the threshold
pKd (PDZD7_3, Q9H5P4; [4]): below the threshold
pKd (NHERF3_3, Q5T2W1; [4]): below the threshold
pKd (LIN7B, Q9HAP6; [4]): 3.48

SSIDLWETAL [SLC15A5, A6NIM6]
pKd (FRMPD1, Q5SYB0; [2]): below the threshold
pKd (TJP2_1, Q9UDY2; [2]): below the threshold
pKd (LDB3, O75112; [2]): 3.92
pKd (PDLIM1, O00151; [2]): 4.22
pKd (GRIP1_4, Q9Y3R0; [2]): below the threshold
pKd (SHANK1, Q9Y566; [2]): 5.38
pKd (DVL3, Q92997; [2]): below the threshold
pKd (AHNAK1, Q09666; [2]): below the threshold
pKd (APBA1_2, Q02410; [2]): 4.29
pKd (NHERF4_4, Q86UT5; [2]): 4.4
pKd (GORASP2, Q9H8Y8; [2]): below the threshold
pKd (CARD11, Q9BXL7; [2]): below the threshold
pKd (HTRA4, P83105; [2]): below the threshold
pKd (MPP2, Q14168; [2]): below the threshold
pKd (PARD3B_1, Q8TEW8; [2]): 4.49
pKd (LNX1_2, Q8TBB1; [2]): below the threshold
pKd (DLG1_3, Q12959; [2]): 4.22
pKd (GRIP2_4, Q9C0E4; [2]): below the threshold
pKd (NHERF3_4, Q5T2W1; [2]): 4.94
pKd (SCRIB_3, Q14160; [2]): 5.71
pKd (GOPC, Q9HD26; [2]): 4.85
pKd (PDZD7_3, Q9H5P4; [2]): 5.56
pKd (NHERF3_3, Q5T2W1; [2]): below the threshold
pKd (LIN7B, Q9HAP6; [2]): 4.92
